Results on 59 substances are retold here after the supplement of paper PMC12042874.

± gives the uncertainty stated by the source.

A short description of the data set: amyloid nucleation score (Sup35N fusion, yeast selection) (log enrichment); library NNK2; higher = more nucleation; inactive = no reads after selection. Summed up:
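The nucleation score is the DiMSum log enrichment of output over input reads, centred on the mode score of non-aggregating sequences. Only sequences with 100 or more input reads were scored, using Illumina sequencing of input and output plasmid inserts. Psi-negative yeast expressing Sup35N fused to peptides of 20 random codons were induced 24 hours with 100 μM copper sulfate and grown 7 days at 30°C on medium lacking adenine and uracil.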
DCNTCKDKPWNAINQPNKKA registered an amyloid nucleation score of 0.121 ± 0.23.

ACANGDADVEWLSDFCEKDE had an amyloid nucleation score of 1.02 ± 0.35.

For the substance VVVSVCSPLK, the amyloid nucleation score is 0.258 ± 0.46.

Take ELAMNIMMAFYYVCSIISTE: the amyloid nucleation score entry was “inactive”.

The substance DVSGLNIVERGYKRCTGGND yielded an amyloid nucleation score of -0.054 ± 0.62.

Turning to SVLRSNRIVDLSIL, the amyloid nucleation score entry was “inactive”.

As for DGEYPHQYSLEVLLLRLRH, the amyloid nucleation score came to 5.071 ± 0.049.

As for AIEYPYRCYRDVAWLRALAS, the amyloid nucleation score was determined as 0.582 ± 0.28.

In turn, CRRFSEYNVLCSDLNPIMVL showed an amyloid nucleation score of 0.404 ± 0.66.

In turn, LVSRSYD registered an amyloid nucleation score of -0.341 ± 0.79.

As for FGMLFGQDKTVHRSGLDLCG, the amyloid nucleation score is 0.119 ± 0.5.

As to LNLIHR, the amyloid nucleation score amounted to 0.153 ± 0.79.

SLVKVGDKRYMFVSTQGKSL registered an amyloid nucleation score of 0.055 ± 0.42.

Turning to FFSTTYNHNSDFAWDQAELY, the amyloid nucleation score stood at 0.016 ± 1.1.

For RMDKAGRSGV, the amyloid nucleation score stood at 0.656 ± 0.26.

WIQKPGLFASNGATATGGHV: the amyloid nucleation score came to 0.395 ± 0.56.

As for KPFHLIKTWKQLLLEKGGPN, the amyloid nucleation score was -0.157 ± 0.28.

As for DYLKRDVSTFSLS, the amyloid nucleation score was -0.021 ± 0.29.

STATHSWGCFSWNSCFHGRQ registered an amyloid nucleation score of 9.493 ± 0.05.

Regarding EFDQWFLLFSLRSSFGLYLF, the amyloid nucleation score amounted to 0.078 ± 0.25.

On to INGCNQCALP, for which the amyloid nucleation score was -0.408 ± 1.

SNQCTWNDYSG: the amyloid nucleation score was -0.565 ± 0.64.

With NLRRKH, the amyloid nucleation score is 0.294 ± 0.8.

RMQHKHASVKGPTCVIQCTD displayed an amyloid nucleation score of 1.62 ± 0.34.

Consider TMKLLQRYYLSFFPI, for which the amyloid nucleation score was -1.72 ± 0.64.

In turn, SMGLDFPWMSRDTGNFGTEI displayed an amyloid nucleation score of -0.337 ± 0.4.

Regarding HRVWTVIMWGS, the amyloid nucleation score came to 0.699 ± 0.44.

In the case of VDQRRVHLDERDY, the amyloid nucleation score is -0.371 ± 0.63.

In the case of FCSPCSFLINSY, the amyloid nucleation score is 6.514 ± 0.048.

For the substance SFANVSVMSIYRAVNPSWRP, the amyloid nucleation score worked out at 5.56 ± 0.072.

SKMSYAYFLSLTMRCVADSM: the amyloid nucleation score came to 3.35 ± 0.06.

In turn, FAESDGRHHFFSPLVSERIE came in with an amyloid nucleation score of 3.82 ± 0.056.

Take RECQHF: the amyloid nucleation score was -0.077 ± 0.74.

On to CSALLYW, for which the amyloid nucleation score is 1.29 ± 0.61.

As to YGSKTRRVWGLRGYRDEGYR, the amyloid nucleation score is -0.413 ± 0.74.

Regarding PALPTVNLNS, the amyloid nucleation score was -0.475 ± 0.42.

For DCHRNGSFRGKDGDVLYRSS, the amyloid nucleation score is -0.397 ± 0.78.

The substance KFKATWYRNSFRAMPCVKPA came in with an amyloid nucleation score of 0.042 ± 1.1.

With NQRIGKTGFYSRSRARLNKT, the amyloid nucleation score was 3.37 ± 0.06.

With VWSSMSFTSLFVIISLSNYS, the amyloid nucleation score amounted to 2.88 ± 0.13.

GKTISNFLGMTTSCEFGR displayed an amyloid nucleation score of -0.81 ± 1.

RLGYILNFELNYLII gave an amyloid nucleation score of 0.856 ± 0.17.

Substance LSKLNGGSSVTSV came in with an amyloid nucleation score of 0.665 ± 0.2.

For STSECLK, the amyloid nucleation score result is “inactive”.

Substance VCSTEV returned an amyloid nucleation score of 0.32 ± 0.74.

ADPVNRKFLHSWDF gave an amyloid nucleation score of 0.112 ± 0.29.

NSQTYTGCAVGYVLVNVMGL displayed an amyloid nucleation score of 6.474 ± 0.033.

NIRNDVLNQLT returned an amyloid nucleation score of 2.11 ± 0.14.

As to FVLLFVYYFILFRLCRIQKV, the amyloid nucleation score entry was “inactive”.

For the substance CLKSISTRNR, the amyloid nucleation score was -0.932 ± 0.76.

Substance ACQAFTCW displayed an amyloid nucleation score of 0.967 ± 0.26.

Consider CRCVR, for which the amyloid nucleation score amounted to 3.38 ± 0.077.

Substance CAGYMRRHFSAAVTWTWAEG registered an amyloid nucleation score of 1.22 ± 0.69.

Substance LASNFGFHGLAADMDALWCY returned an amyloid nucleation score of -1.23 ± 0.78.

GVCSSNWVYVLLDVDDVISR gave an amyloid nucleation score of -0.564 ± 0.39.

Substance ATTVNK had an amyloid nucleation score of 5.76 ± 0.061.

In turn, TYCNRLRNRLMFFLYSPTTS came in with an amyloid nucleation score of -0.587 ± 0.79.

For WVLCRRNLLGH, the amyloid nucleation score entry was “inactive”.

Consider MSTLRRLRSRNRRFVNFVWG, for which the amyloid nucleation score is -0.019 ± 0.33.
